The results in this text go back to article PMC6323126, “Architecture, substructures, and dynamic assembly of STRIPAK complexes in Hippo signaling” (Cell Discovery, 2019).

Series [1] has as its target T1, SIKE1 CC1 (residues 5–65) (human, UniProt Q9BRV8 5-65).
T1 construct: SIKE1, human, residues 5-65; Homodimer within the 2:2 crystal complex; also called residues 5–65 of SIKE1; source: E. coli BL21 (DE3) CodonPlus, purified
T1 sequence (looked up): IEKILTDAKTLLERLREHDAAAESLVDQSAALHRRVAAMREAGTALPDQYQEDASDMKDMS
As to the kind of experiment: not stated; Kd of the minimal regions, Supplementary Fig. S7c; method not given. To be noted: both partners purified.

Series [2] concerns the target T1, SIKE1 CC1 (residues 5–65). Description: crystal structure; SIKE1 CC1-SLMAP CC1 complex reconstituted 1:1 and gel-filtered, 2.3 Å; 0.1 M sodium citrate (pH 5.5), 15% PEG 6000, 16 °C. To be noted: both partners purified.
Series [3] deals with the molecule itself. The series is described as above.
Series [4] deals with T2, MST4 kinase domain (residues 1–300) (human, UniProt Q9P289 1-300).
T2 construct: MST4 (STK26), human, residues 1-300; also called N-terminal kinase domain of MST4; source: E. coli BL21 (DE3) CodonPlus, purified
T2 sequence (Q9P289 1-300): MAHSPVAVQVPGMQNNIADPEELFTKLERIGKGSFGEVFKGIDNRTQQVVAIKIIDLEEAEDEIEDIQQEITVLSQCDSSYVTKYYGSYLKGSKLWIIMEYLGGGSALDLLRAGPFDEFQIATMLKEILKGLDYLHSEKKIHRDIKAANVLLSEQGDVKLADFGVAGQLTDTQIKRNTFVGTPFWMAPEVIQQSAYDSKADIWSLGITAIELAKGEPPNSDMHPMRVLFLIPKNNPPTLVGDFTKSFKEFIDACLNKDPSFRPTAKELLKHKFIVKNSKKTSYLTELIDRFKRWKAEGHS
Description: pull-down; pulldown with purified recombinant proteins shown in supplementary figures; whether GST or MBP and who carried the tag not told. To be noted: both partners purified.

A further series addresses T3, MST4 (recombinant) (human, UniProt Q9P289 1-416).
T3 construct: MST4 (STK26), human; also called STK26; source: E. coli BL21 (DE3) CodonPlus, purified
Described as above. To be noted: both partners purified.

For series [5], the target named is T4, MST2 (recombinant, wildtype) (human, UniProt Q13188 1-491).
T4 construct: MST2 (STK3), human; also called STK3; Hippo kinase MST2; source: E. coli BL21 (DE3) CodonPlus, purified
T4 sequence (looked up): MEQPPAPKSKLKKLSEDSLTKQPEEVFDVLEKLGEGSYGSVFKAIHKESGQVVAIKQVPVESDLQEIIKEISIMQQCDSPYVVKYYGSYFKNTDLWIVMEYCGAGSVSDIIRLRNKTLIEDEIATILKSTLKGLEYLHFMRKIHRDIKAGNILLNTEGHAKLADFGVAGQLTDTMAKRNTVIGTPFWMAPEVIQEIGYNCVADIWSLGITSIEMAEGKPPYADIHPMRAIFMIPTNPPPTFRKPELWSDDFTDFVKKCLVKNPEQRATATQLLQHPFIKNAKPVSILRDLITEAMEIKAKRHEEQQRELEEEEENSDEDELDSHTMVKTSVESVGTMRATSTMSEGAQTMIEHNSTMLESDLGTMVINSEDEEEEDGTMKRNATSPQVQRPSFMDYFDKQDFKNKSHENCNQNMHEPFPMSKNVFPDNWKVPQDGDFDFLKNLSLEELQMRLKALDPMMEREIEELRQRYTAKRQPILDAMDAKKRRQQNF
The series is described as above. To be noted: both partners purified.

In series [6] the target is T5, MST2 kinase domain (residues 1–308) (human, UniProt Q13188 1-308).
T5 construct: also called kinase domain of MST2; source: E. coli BL21 (DE3) CodonPlus, purified
T5 sequence (looked up): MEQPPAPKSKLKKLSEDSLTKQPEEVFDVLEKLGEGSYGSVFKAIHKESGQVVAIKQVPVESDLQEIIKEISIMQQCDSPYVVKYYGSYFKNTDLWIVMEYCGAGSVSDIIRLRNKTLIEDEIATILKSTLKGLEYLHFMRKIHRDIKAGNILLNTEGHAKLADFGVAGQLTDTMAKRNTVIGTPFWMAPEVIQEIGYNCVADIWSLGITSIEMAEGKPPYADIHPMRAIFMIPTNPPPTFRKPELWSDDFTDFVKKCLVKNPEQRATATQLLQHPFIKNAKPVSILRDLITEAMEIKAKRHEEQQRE
As to the kind of experiment: pull-down; GST pulldown: GST-tagged protein, partner and glutathione Sepharose mixed at 4 °C for 1 h in 20 mM HEPES (pH 7.5), 100 mM NaCl; eluted with 20 mM reduced glutathione; SDS-PAGE, Coomassie staining. To be noted: both partners purified.

T3 sequence (Q9P289 whole entry): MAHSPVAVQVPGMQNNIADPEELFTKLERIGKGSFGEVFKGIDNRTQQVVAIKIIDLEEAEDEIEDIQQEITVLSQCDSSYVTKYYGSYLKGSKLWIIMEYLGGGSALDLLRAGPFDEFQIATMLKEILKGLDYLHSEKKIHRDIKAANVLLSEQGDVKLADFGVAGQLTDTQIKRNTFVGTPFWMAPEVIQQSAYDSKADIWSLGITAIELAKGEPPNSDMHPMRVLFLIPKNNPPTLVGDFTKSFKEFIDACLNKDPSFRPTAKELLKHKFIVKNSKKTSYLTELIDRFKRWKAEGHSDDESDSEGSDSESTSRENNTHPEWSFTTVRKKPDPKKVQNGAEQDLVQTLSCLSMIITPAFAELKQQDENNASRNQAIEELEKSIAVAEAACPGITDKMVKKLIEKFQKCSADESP

B1: SLMAP CC1 (residues 167–226) (domain or fragment, human, UniProt Q14BN4 167-226, looked up)
chain: QLSQYLQEALHREQMLEQKLATLQRLLAITQEASDTSWQALIDEDRLLSRLEVMGNQLQA
notes: Homodimer within the 2:2 crystal complex; source: E. coli BL21 (DE3) CodonPlus, purified
The term Kd denotes the constant that tells how readily two partners part at equilibrium. Read a low Kd as higher affinity. As a reminder, the stoichiometry N is a count of units in the complex or per binding partner. On to B1, for which the Kd in series [1] worked out at 6.9 µM. Also, the figures for the “stoichiometry N” value in series [2] and in series [3] were 1 SIKE1 CC1 per SLMAP CC1 (2:2) and 2, respectively.

B2: FHA domain (residues 5–135) of SLMAP (domain or fragment, human, UniProt Q14BN4 5-135, looked up)
chain: LAIFTCRPNSHPFQERHVYLDEPIKIGRSVARCRPAQNNATFDCKVLSRNHALVWFDHKTGKFYLQDTKSSNGTFINSQRLSRGSEESPPCEILSGDIIQFGVDVTENTRKVTHGCIVSTIKLFLPDGMEA
notes: also called SLMAP (FHA); SLMAP FHA domain; source: E. coli BL21 (DE3) CodonPlus, purified
Take B2: the binding result (in series [4]; with MST4 (recombinant); in series [5]; in series [6]) was “binds” each time.
